Assay results taken from PMC10119932.

biological target: Human FcRn (human) (UniProt P55899); test: BLI; human FcRn immobilised, antibody or ADC as analyte; performed as previously reported (refs. 35, 36); no conditions told
Chain of UniProt P55899 (P55899 24-365): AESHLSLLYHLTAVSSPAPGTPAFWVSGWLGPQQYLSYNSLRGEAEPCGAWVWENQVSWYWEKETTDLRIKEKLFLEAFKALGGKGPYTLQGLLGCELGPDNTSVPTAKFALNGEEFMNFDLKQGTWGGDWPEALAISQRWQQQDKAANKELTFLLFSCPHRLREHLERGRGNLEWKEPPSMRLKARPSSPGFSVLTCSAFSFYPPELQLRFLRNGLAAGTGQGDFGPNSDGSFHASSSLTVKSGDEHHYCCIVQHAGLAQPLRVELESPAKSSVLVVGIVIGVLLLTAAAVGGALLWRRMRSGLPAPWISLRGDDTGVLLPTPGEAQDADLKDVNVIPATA

Row | Kd [nM] | koff [s⁻¹] | kon [M⁻¹ s⁻¹] | Substance
1 | 5.65 | 0.00377 | 667000 | Trastuzumab (Herceptin), human IgG1 (antibody)
2 | 5.6 | 0.000848 | 152000 | Trastuzumab-K248-MMAE (5a) (antibody)
3 | 7.22 | 0.00383 | 530000 | Trastuzumab-K288-MMAE (5b) (antibody)
